Assay results from patent publication US20180244760A1 (UNIVERSITY OF MARYLAND BALTIMORE, published 2018).

Columns and labels:
[1] = biological target: T1, Clostridium difficile toxin B (TcdB) (Clostridium difficile, UniProt P18177 2-2366); experiment: sandwich ELISA: TcdB coated, Habab titrated, TcdA at 40 ng/ml detected
T1 construct: also called TxB

[2] = biological target: T1, Clostridium difficile toxin B (TcdB); experiment: cell-based or functional assay
[3] = biological target: T1, Clostridium difficile toxin B (TcdB); experiment: ELISA, plate coated with 1 ug/ml TcdB

T1 sequence (P18177 2-2366 limits assumed): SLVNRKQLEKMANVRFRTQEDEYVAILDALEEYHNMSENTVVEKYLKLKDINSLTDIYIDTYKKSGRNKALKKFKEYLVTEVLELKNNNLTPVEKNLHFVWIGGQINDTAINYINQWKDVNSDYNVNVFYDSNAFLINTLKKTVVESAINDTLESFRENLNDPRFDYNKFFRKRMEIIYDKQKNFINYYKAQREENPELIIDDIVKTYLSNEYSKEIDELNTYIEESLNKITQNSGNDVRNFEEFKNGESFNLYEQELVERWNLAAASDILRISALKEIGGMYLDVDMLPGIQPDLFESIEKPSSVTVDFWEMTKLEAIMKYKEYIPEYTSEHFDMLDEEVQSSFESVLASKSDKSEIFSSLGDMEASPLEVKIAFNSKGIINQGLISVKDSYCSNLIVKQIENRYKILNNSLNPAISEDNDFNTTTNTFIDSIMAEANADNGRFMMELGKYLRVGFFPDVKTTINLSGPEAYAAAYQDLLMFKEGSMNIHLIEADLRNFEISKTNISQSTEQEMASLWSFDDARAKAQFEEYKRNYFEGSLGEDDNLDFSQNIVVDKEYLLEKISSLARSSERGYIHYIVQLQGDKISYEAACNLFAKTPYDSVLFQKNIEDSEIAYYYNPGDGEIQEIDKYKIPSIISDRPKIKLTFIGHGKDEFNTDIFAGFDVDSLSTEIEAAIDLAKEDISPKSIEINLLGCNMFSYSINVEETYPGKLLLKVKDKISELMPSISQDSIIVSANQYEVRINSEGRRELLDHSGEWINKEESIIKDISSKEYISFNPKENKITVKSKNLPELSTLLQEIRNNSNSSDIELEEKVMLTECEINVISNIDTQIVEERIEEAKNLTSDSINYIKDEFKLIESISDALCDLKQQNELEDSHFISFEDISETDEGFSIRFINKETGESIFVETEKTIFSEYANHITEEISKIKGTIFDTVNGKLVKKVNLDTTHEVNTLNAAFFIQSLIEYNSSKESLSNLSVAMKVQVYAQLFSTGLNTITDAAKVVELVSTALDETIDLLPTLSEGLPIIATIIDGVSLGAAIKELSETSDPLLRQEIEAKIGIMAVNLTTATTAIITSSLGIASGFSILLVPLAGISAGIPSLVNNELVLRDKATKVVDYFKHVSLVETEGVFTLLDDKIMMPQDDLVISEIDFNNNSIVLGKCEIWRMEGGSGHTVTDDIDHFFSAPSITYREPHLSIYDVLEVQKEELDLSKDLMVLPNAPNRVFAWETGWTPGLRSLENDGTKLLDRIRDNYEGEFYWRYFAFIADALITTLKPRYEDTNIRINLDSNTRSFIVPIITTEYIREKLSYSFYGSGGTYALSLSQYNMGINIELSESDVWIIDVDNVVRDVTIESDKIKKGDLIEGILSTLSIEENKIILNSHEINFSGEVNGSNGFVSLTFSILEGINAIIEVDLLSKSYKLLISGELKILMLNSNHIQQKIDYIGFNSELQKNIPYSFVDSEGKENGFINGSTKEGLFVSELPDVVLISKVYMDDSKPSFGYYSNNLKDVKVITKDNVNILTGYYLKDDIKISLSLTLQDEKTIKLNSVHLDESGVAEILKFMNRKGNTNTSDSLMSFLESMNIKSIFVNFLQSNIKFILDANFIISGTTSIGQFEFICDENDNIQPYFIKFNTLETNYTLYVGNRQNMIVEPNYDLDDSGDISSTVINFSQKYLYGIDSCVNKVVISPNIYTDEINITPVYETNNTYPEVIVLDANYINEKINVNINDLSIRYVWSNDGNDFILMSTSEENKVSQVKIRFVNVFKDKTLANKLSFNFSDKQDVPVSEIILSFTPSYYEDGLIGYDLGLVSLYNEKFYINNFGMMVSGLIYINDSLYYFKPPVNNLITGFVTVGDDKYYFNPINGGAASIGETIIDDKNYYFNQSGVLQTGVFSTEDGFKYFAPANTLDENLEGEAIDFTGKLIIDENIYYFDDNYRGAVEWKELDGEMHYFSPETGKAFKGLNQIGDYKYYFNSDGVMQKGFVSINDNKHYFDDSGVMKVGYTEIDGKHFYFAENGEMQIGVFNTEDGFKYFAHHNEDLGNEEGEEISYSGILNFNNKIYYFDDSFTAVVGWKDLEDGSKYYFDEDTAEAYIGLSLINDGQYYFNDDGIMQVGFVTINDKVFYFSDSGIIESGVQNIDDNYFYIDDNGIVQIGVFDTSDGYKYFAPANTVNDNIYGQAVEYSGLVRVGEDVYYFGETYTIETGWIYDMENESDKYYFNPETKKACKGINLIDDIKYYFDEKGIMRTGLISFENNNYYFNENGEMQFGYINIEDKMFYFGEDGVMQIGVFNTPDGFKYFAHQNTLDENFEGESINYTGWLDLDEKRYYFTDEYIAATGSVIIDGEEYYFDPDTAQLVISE

Binder	EC50 (read off the curve) [1] [µg/mL]	neutralization of the TcdB cytopathic effect on Vero cells, fold potency over the Merck antibody [2] [fold]	EC50 (read off the curve) [3] [µg/mL]
ABAB-IgG1 tetra-specific, octameric binding agent (bispecific antibody, also called IgG-ABAB; IgG-ABBA) heavy: not shown light: QLQLVETGGGLVQPGGSLRLSCAASGFTFSDYVMTWVRQAPGKGPEWIATINTDGSTMRDDSTKGRFTISRDNAKNTLYLQMTSLKPEDTALYYCARGRVISASAIRGAVRGPGTQVTVSSGGGGSGGGGSGGGGSQVQLVESGGGLVQTGGSLRLSCASSGSIAGFETVTWSRQAPGKSLQWVASMTKTNNEIYSDSVKGRFIISRDNAKNTVYLQMNSLKPEDTGVYFCKGPELRGQGIQVTVSSRTVAAPSVFIFPPSDEQLKSGTASVVCLLNNFYPREAKVQWKVDNALQSGNSQESVTEQDSKDSTYSLSSTLTLSKADYEKHKVYACEVTHQGLSSPVTKSFNRGEC	~0.05	≥ 1000	–
VHH peptide monomer E3 (VHH, also called VHH E3) VHH: QVQLVESGGGLVQTGGSLRLSCASSGSIAGFETVTWSRQAPGKSLQWVASMTKTNNEIYSDSVKGRFIISRDNAKNTVYLQMNSLKPEDTGVYFCKGPELRGQGIQVTVSS	–	–	~0.01
